# Results reported in publication PMC11761711, “Insights into the flexibility of the domain‐linking loop in actinobacterial coproheme decarboxylase through structures and molecular dynamics simulations” (Protein Science : A Publication of the Protein Society, 2025).
# B1: Corynebacterium diphtheriae coproheme decarboxylase (enzyme)
# chain: MAEKLNFEELNSMQRYSQFAVFRAIPGALGSDRAEIVAQAQSFFDGLETAGKVEVRGIYDLAGCRAEADFMIWWIAEEFEEIQAAFARFRRETVLGQVSEVAWLGNSLHRPAEFNRSHLPSFIMGEIPGDWITVYPFVRSYDWYIMDPQKRRKILAEHGQAARDFPDVRANTVPAFALGDYEWMLAFEAPRLDRIVDLMHKMRYTEARLHVREETPFFTGRRVSEVSELVNVLP
# notes: coproheme decarboxylase (ChdC) of Corynebacterium diphtheriae, wild type; Homopentamer; also called CdChdC; apo-CdChdC; source: recombinant, expressed and purified as described previously (Michlits et al. 2020); Ni2+ column, HRV 3C protease cleavage, SEC
# Target: the molecule itself
# Assay: cryo-EM structure; apo-CdChdC, SEC-purified, 70 to 120 uM on grids, single-particle reconstruction with C5 symmetry, 2.27 A
protein,measurement,value
B1,stoichiometry N,5
